Measured values published in patent publication US20260116937A1 (published 2026).

Assays:
human C3b [1] = biological target: T1, human C3b (human, UniProt P01024 749-1663; P01024 23-667); assay: ELISA
human C3b [2] = biological target: T1, human C3b; assay: ELISA; remark: listed apart in the source
human C3b [3] = biological target: T1, human C3b; assay: ELISA; culture supernatant

T1 sequence (P01024 749-1663, chain 1 of 2): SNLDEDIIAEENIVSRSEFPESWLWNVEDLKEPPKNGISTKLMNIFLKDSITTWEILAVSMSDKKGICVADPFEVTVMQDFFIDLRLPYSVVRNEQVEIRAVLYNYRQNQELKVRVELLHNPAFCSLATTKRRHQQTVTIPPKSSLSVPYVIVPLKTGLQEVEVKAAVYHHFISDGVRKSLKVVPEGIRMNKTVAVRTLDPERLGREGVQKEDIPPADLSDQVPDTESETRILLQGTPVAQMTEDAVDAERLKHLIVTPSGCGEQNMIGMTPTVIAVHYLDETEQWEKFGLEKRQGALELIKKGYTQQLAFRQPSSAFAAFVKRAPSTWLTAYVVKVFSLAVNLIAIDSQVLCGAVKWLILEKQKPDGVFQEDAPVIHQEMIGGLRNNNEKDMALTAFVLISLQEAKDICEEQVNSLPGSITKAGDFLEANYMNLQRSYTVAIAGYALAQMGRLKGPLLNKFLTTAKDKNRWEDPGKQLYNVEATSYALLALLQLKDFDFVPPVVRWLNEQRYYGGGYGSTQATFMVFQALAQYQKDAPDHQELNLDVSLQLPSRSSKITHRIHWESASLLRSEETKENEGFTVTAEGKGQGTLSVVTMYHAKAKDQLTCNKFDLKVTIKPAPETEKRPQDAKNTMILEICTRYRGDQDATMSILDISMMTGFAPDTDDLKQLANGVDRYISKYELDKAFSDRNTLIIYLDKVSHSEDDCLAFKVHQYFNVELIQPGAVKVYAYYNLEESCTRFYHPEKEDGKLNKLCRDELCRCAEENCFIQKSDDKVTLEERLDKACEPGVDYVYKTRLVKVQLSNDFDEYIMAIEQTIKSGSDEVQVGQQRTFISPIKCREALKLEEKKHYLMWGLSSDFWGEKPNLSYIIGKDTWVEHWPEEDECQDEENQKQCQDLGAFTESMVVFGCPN
T1 sequence (P01024 23-667, chain 2 of 2): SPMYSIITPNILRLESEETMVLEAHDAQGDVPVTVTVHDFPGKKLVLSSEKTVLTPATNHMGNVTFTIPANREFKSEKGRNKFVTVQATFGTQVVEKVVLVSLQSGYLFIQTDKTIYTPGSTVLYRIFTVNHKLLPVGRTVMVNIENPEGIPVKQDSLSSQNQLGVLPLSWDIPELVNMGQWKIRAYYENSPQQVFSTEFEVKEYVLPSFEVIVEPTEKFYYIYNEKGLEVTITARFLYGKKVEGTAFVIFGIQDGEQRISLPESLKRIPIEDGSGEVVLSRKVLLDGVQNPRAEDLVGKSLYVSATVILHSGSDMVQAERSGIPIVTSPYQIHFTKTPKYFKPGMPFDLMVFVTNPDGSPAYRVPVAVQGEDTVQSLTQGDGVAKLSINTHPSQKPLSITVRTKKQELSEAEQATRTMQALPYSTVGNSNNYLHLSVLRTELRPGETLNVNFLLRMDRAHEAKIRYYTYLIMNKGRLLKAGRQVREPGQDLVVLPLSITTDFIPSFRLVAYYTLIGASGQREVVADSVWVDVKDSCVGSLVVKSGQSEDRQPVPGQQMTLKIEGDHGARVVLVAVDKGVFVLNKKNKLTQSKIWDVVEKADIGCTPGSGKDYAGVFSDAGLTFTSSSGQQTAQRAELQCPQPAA

| Binder | EC50 (human C3b [1]) [nM] | EC50 (human C3b [2]) [nM] | EC50 (human C3b [3]) [nM] |
| --- | --- | --- | --- |
| Var004 (engineered variant of FHL-1) (designed binder) EDCNELPPRRNTEILTGSWSDQTYPEGTQAIYKCRPGYRSLGNVIMVCRKGEWVALNPLRKCQKRPCGHPGDTPFGTFTLTGGNVFEYGVKAVYTCNEGYQLLGEINYRECDTDGWTNDIPICEVVKCLPVTAPENGKIVSSAMEPDREYHFGQAVRFVCNSGYKIEGDEEMHCSDDGFWSKEKPKCVEISCKSPDVINGSPISQKIIYKENERFQYKCNMGYEYSERGDAVCTESGWRPLPSCEEKSCDNPYIPNGDYSPLRIKHRTGDEITYQCRNGFYPATRGNTAKCTSTGWIPAPRCTLKPCDYPDIKHGGLYHENMRRPYFPVAVGKYYSYYCDEHFETPSGSYWDHIHCTQDGWSPAVPCLRKCYFPYLENGYNQNYGRKFVQGKSIDVACHPGYALPKAQTTVTCMENGWSPTPRCIRVSGGGGSGGGGSGGGGSTLKPCDYPDIKHGGLYHENMRRPYFPVAVGKYYSYYCDEHFETPSGSYWDHIHCTQDGWSPAVPCLRKCYFPYLENGYNQNYGRKFVQGKSIDVACHPGYALPKAQTTVTCMENGWSPTPRCIRVSFTL |  |  | 2.5 |
| Factor H-like protein 1 (FHL-1) (other) EDCNELPPRRNTEILTGSWSDQTYPEGTQAIYKCRPGYRSLGNVIMVCRKGEWVALNPLRKCQKRPCGHPGDTPFGTFTLTGGNVFEYGVKAVYTCNEGYQLLGEINYRECDTDGWTNDIPICEVVKCLPVTAPENGKIVSSAMEPDREYHFGQAVRFVCNSGYKIEGDEEMHCSDDGFWSKEKPKCVEISCKSPDVINGSPISQKIIYKENERFQYKCNMGYEYSERGDAVCTESGWRPLPSCEEKSCDNPYIPNGDYSPLRIKHRTGDEITYQCRNGFYPATRGNTAKCTSTGWIPAPRCTLKPCDYPDIKHGGLYHENMRRPYFPVAVGKYYSYYCDEHFETPSGSYWDHIHCTQDGWSPAVPCLRKCYFPYLENGYNQNYGRKFVQGKSIDVACHPGYALPKAQTTVTCMENGWSPTPRCIRVSFTL |  | 7.4 |  |

More lines, now with the values ahead:

| EC50 (human C3b [1]) [nM] | EC50 (human C3b [2]) [nM] | EC50 (human C3b [3]) [nM] | Binder |
| --- | --- | --- | --- |
| 1.2 | 4.5 |  | complement factor H (CFH) (other) EDCNELPPRRNTEILTGSWSDQTYPEGTQAIYKCRPGYRSLGNVIMVCRKGEWVALNPLRKCQKRPCGHPGDTPFGTFTLTGGNVFEYGVKAVYTCNEGYQLLGEINYRECDTDGWTNDIPICEVVKCLPVTAPENGKIVSSAMEPDREYHFGQAVRFVCNSGYKIEGDEEMHCSDDGFWSKEKPKCVEISCKSPDVINGSPISQKIIYKENERFQYKCNMGYEYSERGDAVCTESGWRPLPSCEEKSCDNPYIPNGDYSPLRIKHRTGDEITYQCRNGFYPATRGNTAKCTSTGWIPAPRCTLKPCDYPDIKHGGLYHENMRRPYFPVAVGKYYSYYCDEHFETPSGSYWDHIHCTQDGWSPAVPCLRKCYFPYLENGYNQNYGRKFVQGKSIDVACHPGYALPKAQTTVTCMENGWSPTPRCIRVKTCSKSSIDIENGFISESQYTYALKEKAKYQCKLGYVTADGETSGSITCGKDGWSAQPTCIKSCDIPVFMNARTKNDFTWFKLNDTLDYECHDGYESNTGSTTGSIVCGYNGWSDLPICYERECELPKIDVHLVPDRKKDQYKVGEVLKFSCKPGFTIVGPNSVQCYHFGLSPDLPICKEQVQSCGPPPELLNGNVKEKTKEEYGHSEVVEYYCNPRFLMKGPNKIQCVDGEWTTLPVCIVEESTCGDIPELEHGWAQLSSPPYYYGDSVEFNCSESFTMIGHRSITCIHGVWTQLPQCVAIDKLKKCKSSNLIILEEHLKNKKEFDHNSNIRYRCRGKEGWIHTVCINGRWDPEVNCSMAQIQLCPPPPQIPNSHNMTTTLNYRDGEKVSVLCQENYLIQEGEEITCKDGRWQSIPLCVEKIPCSQPPQIEHGTINSSRSSQESYAHGTKLSYTCEGGFRISEENETTCYMGKWSSPPQCEGLPCKSPPEISHGVVAHMSDSYQYGEEVTYKCFEGFGIDGPAIAKCLGEKWSHPPSCIKTDCLSLPSFENAIPMGEKKDVYKAGEQVTYTCATYYKMDGASNVTCINSRWTGRPTCRDTSCVNPPTVQNAYIVSRQMSKYPSGERVRYQCRSPYEMFGDEEVMCLNGNWTEPPQCKDSTGKCGPPPPIDNGDITSFPLSVYAPASSVEYQCQNLYQLEGNKRITCRNGQWSEPPKCLHPCVISREIMENYNIALRWTAKQKLYSRTGESVEFVCKRGYRLSSRSHTLRTTCWDGKLEYPTCAKR |
|  | 0.4 |  | Var108 (glycoengineered variant of FHL-1, G442N in the Var004 framework) (designed binder, N-linked glycosylation at the engineered NxS/T motif (G442N), >90% glycosylated monomer) EDCNELPPRRNTEILTGSWSDQTYPEGTQAIYKCRPGYRSLGNVIMVCRKGEWVALNPLRKCQKRPCGHPGDTPFGTFTLTGGNVFEYGVKAVYTCNEGYQLLGEINYRECDTDGWTNDIPICEVVKCLPVTAPENGKIVSSAMEPDREYHFGQAVRFVCNSGYKIEGDEEMHCSDDGFWSKEKPKCVEISCKSPDVINGSPISQKIIYKENERFQYKCNMGYEYSERGDAVCTESGWRPLPSCEEKSCDNPYIPNGDYSPLRIKHRTGDEITYQCRNGFYPATRGNTAKCTSTGWIPAPRCTLKPCDYPDIKHGGLYHENMRRPYFPVAVGKYYSYYCDEHFETPSGSYWDHIHCTQDGWSPAVPCLRKCYFPYLENGYNQNYGRKFVQGKSIDVACHPGYALPKAQTTVTCMENGWSPTPRCIRVSGGGGSGGGGSGGGNSTLKPCDYPDIKHGGLYHENMRRPYFPVAVGKYYSYYCDEHFETPSGSYWDHIHCTQDGWSPAVPCLRKCYFPYLENGYNQNYGRKFVQGKSIDVACHPGYALPKAQTTVTCMENGWSPTPRCIRVSFTL |
